# Test results: US20070154994A1 (NATIONAL RESEARCH COUNCIL OF CANADA, published 2007)
# Where no end group is shown, it is not given here.
# B1: MP-TβRIIIED-K5 fusion protein (receptor)
# chain: GPEQKLISEEDLRQLRNPSGFQGQLDGNATFNMELYNTDLFLVPSPGVFSVAENEHVYVEVSVTKADQDLGFAIQTCFLSPYSNPDRMSDYTIIENICPKDDSVKFYSSKRVHFPIPHAEVDKKRFSFLFKSVFNTSLLFLHCELTLCSRKKGSLKLPRCVTPDDACTSLDATMIWTMMQNKKTFTKPLAVVLQVDYKENVPSTKDSSPIPPPPPQIFHGGRGGGGSGGGKVSALKEKVSALKEKVSALKEKVSALKEKVSALKEGGHHHHHH
# notes: Secreted from HEK 293SF cells; also called Cterm-TβRIIIED-K5coil; K5 tagged TβRIIIED
# B2: TβRIIED-E5 dimerized by K5ox (two TβRIIED-E5 to one K5ox) (receptor)
# chain: TIPPEQKLISEEDLLHVQKSVNNDMIVTDNNGAVKFPQLCKFCDVRFSTCDNQKSCMSNCSITSICEKPQEVCVAVWRKNDENITLETVCHDPKLPYHDFILEDAASPKCIMKEKKKPGETFFMCSCSSDECNDNIIFSEEYNTSNPDGGRGGGGSGGGEVSALEKEVSALEKEVSALEKEVSALEKEVSALEKGGHHHHHH
# peptide: CGGKVSALKEKVSALKEKVSALKEKVSALKEKVSALKE
# modifications: N-terminal Cys oxidized, joining the two chains as a K5 covalent dimer
# B3: K5ox (peptide)
# peptide: B2 peptide
# modifications: also: covalent homodimer via oxidized N-terminal Cys
# notes: Synthetic peptide oxidized in ammonium bicarbonate at pH 8.0; also called oxidized CGGK5 coil; K5 covalent dimer
# B4: TβRIIED-E5 fusion protein (receptor)
# chain: B2 chain
# notes: Secreted from HEK 293SF cells; also called TβRII ED-E5 coil; E5 coiled-tagged TβRIIED
# B5: TβRIIED-K5/TβRIIED-E5 coiled-coil induced dimer (receptor)
# chain 1: TIPPEQKLISEEDLLHVQKSVNNDMIVTDNNGAVKFPQLCKFCDVRFSTCDNQKSCMSNCSITSICEKPQEVCVAVWRKNDENITLETVCHDPKLPYHDFILEDAASPKCIMKEKKKPGETFFMCSCSSDECNDNIIFSEEYNTSNPDGGRGGGGSGGGKVSALKEKVSALKEKVSALKEKVSALKEKVSALKEGGHHHHHH
# chain 2: B2 chain
# notes: Non-covalent dimer made by preincubating equimolar TβRIIED-K5 and TβRIIED-E5; also called TβRIIED-E5/TβRIIED-K5 dimer
# B6: TβRIIED-K5 fusion protein (receptor)
# chain: B5 chain 1
# notes: Secreted from HEK 293SF cells; The monomer was separated from aggregates with a Centriprep 30; also called K5 coiled-tagged TβRIIED; monomeric TβRIIED-K5
# Key:
# Recombinant human TGF-β1 [1] = target: T1, Recombinant human TGF-β1 (human, UniProt P01137 279-390); assay: SPR, TGF-β1 coupled, simple model, Kdapp
# T1 construct: It was amine coupled to the CM5 chip in SPR and used at 10 pM in the luciferase assay; also called transforming growth factor-β1
# T1 sequence (P01137 279-390 limits assumed): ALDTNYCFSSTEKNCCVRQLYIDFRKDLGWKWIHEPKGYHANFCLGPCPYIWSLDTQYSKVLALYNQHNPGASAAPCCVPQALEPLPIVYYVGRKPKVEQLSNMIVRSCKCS
# Experimental: (§1) In FIG. 6A, different concentrations of MP-TβRIIIED-K5 monomeric fusion protein ranging from 62.5 nM to 500 nM were injected over 75 RUs of coupled TGF-β1 and over a control surface. The points are the resonance units obtained after data preparation as described in Example 2, and the solid lines represent the fit when integrating all the curves simultaneously using a rearrangement model. FIGS. 6B-6C show residuals from the fit of the interaction data using a rearrangement model (FIG. 6B) and a simple one-to-one model (FIG. 6C).
# (§2) Surface plasmon resonance studies were performed using a BIACORE™ biosensor (see for example U.S. Pat. No. 6,165,335 and related patents) using a running buffer composed of HBS; 20 mM Hepes (pH 7.4),150 mM NaCl, 3.4 mM EDTA, and 0.05% Tween20 for diluting all the test analytes.
# Recombinant human TGF-β1 [2] = target: T1, Recombinant human TGF-β1; assay: SPR, TGF-β1 coupled, rearrangement model, Kdiss#1
# Experimental: as §1
# (§3) Kinetic experiments were carried out at 25° C. with a flow rate of 100 μL/min. Different concentrations of MP-TβRIIIED-K5 (0 to 500 nM), or MP-TβRIIIED-mixed with equimolar concentrations of […] (0 to 150 nM), were randomly injected in duplicate over a TGF-β1 surface as well as over a control surface (150 μL injections), following which the analyte solution was replaced by buffer for at least 210 seconds. Regeneration of the sensor chip for subsequent injections was accomplished by two pulses of HCl (20 mM, 120 seconds), followed by an EXTRACLEAN procedure performed according to the BIACORE manual.
# Recombinant human TGF-β1 [3] = target: T1, Recombinant human TGF-β1; assay: SPR, TGF-β1 coupled, rearrangement model, rearrangement step
# Experimental: as §1, §2
# Recombinant human TGF-β1 [4] = target: T1, Recombinant human TGF-β1; assay: SPR, TGF-β1 coupled, rearrangement model, kass#1
# Experimental: as §1, §2
# Recombinant human TGF-β1 [5] = target: T1, Recombinant human TGF-β1; assay: SPR, TGF-β1 coupled, simple model, kass#1
# Experimental: as §1, §3
# [6] = target: T2, Recombinant human TβRIIED, untagged (human, UniProt P37173 23-166); assay: SPR (BIACORE), untagged hTβRII ED (about 120 RU left) captured on the coupled anti hTGF-βRII antibody, MP-TβRIIIED-K5 injected
# T2 construct: extracellular domain; Gift from Dr. Hinck; also called untagged hTβRII ED; untagged TβRIIED
# T2 sequence (P37173 23-166): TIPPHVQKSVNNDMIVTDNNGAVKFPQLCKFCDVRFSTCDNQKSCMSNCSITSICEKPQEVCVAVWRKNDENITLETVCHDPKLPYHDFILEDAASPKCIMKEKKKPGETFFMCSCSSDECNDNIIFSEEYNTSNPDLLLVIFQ
# Experimental: This study is also described in Example 2.
# (§4) A solution of 0.1 M ethanolamine-HCl (pH 8.5, 35 μL) was then used to block the remaining activated carboxyl groups.
# (§5) Three studies were then performed at a flow rate of 5 μL/min: [0183] […] [0184] […] [0185]
# Recombinant human TGF-β1 [7] = target: T1, Recombinant human TGF-β1; assay: SPR, TGF-β1 coupled, rearrangement model, Kd 1 (initial binding step)
# Experimental: as §1, §2
# Recombinant human TGF-β1 [8] = target: T1, Recombinant human TGF-β1; assay: SPR, TGF-β1 coupled, rearrangement model, Kdapp
# Experimental: as §1, §3
# Recombinant human TGF-β1 [9] = target: T1, Recombinant human TGF-β1; assay: SPR, TGF-β1 coupled, simple model, Kd 1; simple model, Kd 1
# Experimental: as §1, §2
# Recombinant human TGF-β1 [10] = target: T1, Recombinant human TGF-β1; assay: SPR, TGF-β1 coupled, simple model, Kdiss#1
# Experimental: as §1, §2
# Recombinant human TGF-β1 [11] = target: T1, Recombinant human TGF-β1; assay: cell-based or functional assay
# [12] = target: B4; assay: inferred from SPR of TβRIIED-E5 (300 nM) preincubated with K5ox over coupled TGF-β1
# Excerpt: (§6) In another embodiment of the invention, an alternative approach to achieving coiled-coil induced dimerization of TβRIIED is provided. In this embodiment, a dimeric coil is used to act as an adaptor to bridge two proteins.
# (§7) Regeneration of the sensor chip was done as described above.
# Recombinant human TGF-β1 [13] = target: T1, Recombinant human TGF-β1; assay: SPR (BIACORE), TGF-β1 coupled, 300 nM TβRIIED-E5 alone; the pair is assigned by the fast wash-off that paragraph 133 gives for sensorgrams 1 and 4
# Excerpt: as §6, §7
# Recombinant human TGF-β1 [14] = target: T1, Recombinant human TGF-β1; assay: SPR, TGF-β1 coupled, simple one-to-one model (poor fit), Kd 1
# Experimental: (§8) Regeneration of the sensor chip for subsequent injections was accomplished by two pulses of HCl (20 mM, 120 seconds), followed by an EXTRACLEAN procedure performed according to the BIACORE manual.
# Recombinant human TGF-β1 [15] = target: T1, Recombinant human TGF-β1; assay: SPR, TGF-β1 coupled, rearrangement model, rearrangement step; remark: listed apart in the source
# Experimental: (§9) Since TGF-β1 is a covalent dimer, and since TβRIIED was artificially dimerized through coiled-coil interactions, two scenarios of binding were evaluated. […] This corresponds to an overall one to one (dimer-to-dimer) stoichiometry model with a rearrangement step after the initial binding (rearrangement model).
# Recombinant human TGF-β1 [16] = target: T1, Recombinant human TGF-β1; assay: SPR, TGF-β1 coupled, avidity model, kass#1
# Experimental: as §9
# Recombinant human TGF-β1 [17] = target: T1, Recombinant human TGF-β1; assay: SPR, TGF-β1 coupled, avidity model, second step; unit from footnote **
# Experimental: as §8
# Recombinant human TGF-β1 [18] = target: T1, Recombinant human TGF-β1; assay: SPR, TGF-β1 coupled, rearrangement model (best fit), Kdapp
# Recombinant human TGF-β1 [19] = target: T1, Recombinant human TGF-β1; assay: SPR, TGF-β1 coupled, rearrangement model, Kd 1 (initial binding step); remark: listed apart in the source
# Experimental: as §9
# Recombinant human TGF-β1 [20] = target: T1, Recombinant human TGF-β1; assay: SPR, TGF-β1 coupled, avidity model, Kd 1
# Experimental: as §8
# Recombinant human TGF-β1 [21] = target: T1, Recombinant human TGF-β1; assay: SPR, TGF-β1 coupled, simple one-to-one model (poor fit), Kdapp
# Experimental: as §8
# Recombinant human TGF-β1 [22] = target: T1, Recombinant human TGF-β1; assay: SPR, TGF-β1 coupled, rearrangement model (best fit), Kdiss#1
# Recombinant human TGF-β1 [23] = target: T1, Recombinant human TGF-β1; assay: SPR, TGF-β1 coupled, simple one-to-one model (poor fit), kass#1
# Recombinant human TGF-β1 [24] = target: T1, Recombinant human TGF-β1; assay: SPR, TGF-β1 coupled, rearrangement model (best fit), kass#1
# Experimental: as §9
# Recombinant human TGF-β1 [25] = target: T1, Recombinant human TGF-β1; assay: SPR, TGF-β1 coupled, avidity model, Kdiss#1
# Experimental: as §9
# Recombinant human TGF-β1 [26] = target: T1, Recombinant human TGF-β1; assay: SPR, TGF-β1 coupled, simple one-to-one model (poor fit), Kdiss#1
# Recombinant human TGF-β1 [27] = target: T1, Recombinant human TGF-β1; assay: SPR, TGF-β1 coupled, two-to-one stoichiometry model, Kd 2 (second site)
# Experimental: (§10) As described in Example 3, TGF-β1 was coupled to the biosensor surface (approximately 250 RUs) by a standard amino coupling procedure. […] After data preparation by the ‘double referencing’ method, the set of sensorgrams was globally fit using a kinetic model depicting the presence of two independent TβRIIED binding sites on the TGF-β1 molecule (two-to-one stoichiometry model).
# as §8
# Recombinant human TGF-β1 [28] = target: T1, Recombinant human TGF-β1; assay: SPR, TGF-β1 coupled, two-to-one stoichiometry model, kdiss 2 (second site)
# Experimental: as §10, §8
# Recombinant human TGF-β1 [29] = target: T1, Recombinant human TGF-β1; assay: SPR, TGF-β1 coupled, two-to-one stoichiometry model, kass 2 (second site)
# Experimental: as §10, §8
# Recombinant human TGF-β1 [30] = target: T1, Recombinant human TGF-β1; assay: SPR, TGF-β1 coupled, two-to-one stoichiometry model, kdiss 1 (first site)
# Experimental: as §10, §8
# Recombinant human TGF-β1 [31] = target: T1, Recombinant human TGF-β1; assay: SPR, TGF-β1 coupled, two-to-one stoichiometry model, Kd 1 (first site)
# Experimental: as §10, §8
# [32] = target: B4; assay: SPR (BIACORE), TβRIIED-E5 captured on the coupled anti hTGF-βRII antibody, TβRIIED-K5 injected at 50 nM
# Experimental: as §4, §5
# Recombinant human TGF-β1 [33] = target: T1, Recombinant human TGF-β1; assay: SPR, TGF-β1 coupled, two-to-one stoichiometry model, kass 1 (first site)
# Experimental: as §10, §8
binder,measurement,setting,value
B1,Kd,Recombinant human TGF-β1 [1],48 nM
same,koff,Recombinant human TGF-β1 [2],0.044 s⁻¹
same,kd 2 (no unit),Recombinant human TGF-β1 [3],0.15 no unit
same,kon,Recombinant human TGF-β1 [4],64000 M⁻¹ s⁻¹
same,kon,Recombinant human TGF-β1 [5],50000 M⁻¹ s⁻¹
same,binding result,[6],no binding (tested: 200 nM)
same,Kd,Recombinant human TGF-β1 [7],670 nM
same,Kd,Recombinant human TGF-β1 [8],86 nM
same,Kd,Recombinant human TGF-β1 [9],49 nM
same,koff,Recombinant human TGF-β1 [10],0.0025 s⁻¹
B2,"IC50 for inhibition of signaling (luciferase, MLEC cells)",Recombinant human TGF-β1 [11],~30 nM
same,"IC50 of TβRIIED-E5 in the presence of 150 nM K5ox (luciferase, MLEC cells)",Recombinant human TGF-β1 [11],53 nM
B3,binding result,[12],binds
B4,binding result,Recombinant human TGF-β1 [13],binds
B5,Kd,Recombinant human TGF-β1 [14],0.33 nM
same,Kd 2 (no unit),Recombinant human TGF-β1 [15],0.0166 no unit
same,kon,Recombinant human TGF-β1 [16],213000 M⁻¹ s⁻¹
same,Kd 2,Recombinant human TGF-β1 [17],370 nM
same,Kd,Recombinant human TGF-β1 [18],1.5 nM
same,Kd,Recombinant human TGF-β1 [19],92 nM
same,Kd,Recombinant human TGF-β1 [20],330 nM
same,Kd,Recombinant human TGF-β1 [21],0.33 nM
same,koff,Recombinant human TGF-β1 [22],0.11 s⁻¹
same,kon,Recombinant human TGF-β1 [23],640000 M⁻¹ s⁻¹
same,kon,Recombinant human TGF-β1 [24],1.19e+06 M⁻¹ s⁻¹
same,koff,Recombinant human TGF-β1 [25],0.071 s⁻¹
same,koff,Recombinant human TGF-β1 [26],0.00021 s⁻¹
B6,Kd,Recombinant human TGF-β1 [27],1250 nM
same,koff,Recombinant human TGF-β1 [28],0.0026 s⁻¹
same,kon,Recombinant human TGF-β1 [29],1900 M⁻¹ s⁻¹
same,koff,Recombinant human TGF-β1 [30],0.033 s⁻¹
same,Kd,Recombinant human TGF-β1 [31],90 nM
same,binding result,[32],binds
same,kon,Recombinant human TGF-β1 [33],365000 M⁻¹ s⁻¹
